In test [1] the target is HLA-A*02:01 (Homo sapiens, UniProt P04439, D140Y/D185E/D98H/E176V/E277Q/G131W/G231S/I119V/I121R/I166T/I218V/L300P/L318F/N151K/N90K/P208A/P217A/Q86G/Q94H/R138H/R169H/T345S). In words: MHC binding assay: UV-ligand exchange with beta2m ELISA (peptide exchange yield). The following applies: binding to HLA-A*02:01. The essentials:
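Peptide-MHC complexes formed by UV-ligand exchange, a UV-cleavable peptide being replaced by the candidate peptide. Exchange products diluted 100-fold, captured on streptavidin-coated plates for 1h at 37° C, then detected with 2 ug/ml HRP anti-β2m (1h, 37° C) and TMB, absorbance 450 nm; value is exchange yield.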

For test [2], the system named is CD8+ T cells. In words: In vitro T-cell priming with aAPCs loaded with peptide/MHC and anti-CD28, pMHC multimer readout (in vitro immunogenicity). In kind it is cell-based, human. The following applies: HLA-A*02, healthy donors. As for the experimental part:
In an aspect, the peptides are pre-screened for immunogenicity before being included in the warehouse. By way of example, and not limitation, the immunogenicity of the peptides included in the warehouse is determined by a method comprising in vitro T-cell priming through repeated stimulations of CD8+ T cells from healthy donors with artificial antigen presenting cells loaded with peptide/MHC complexes and anti-CD28 antibody.
In order to obtain information regarding the immunogenicity of the TUMAPs of the present invention, the inventors performed investigations using an in vitro T-cell priming assay based on repeated stimulations of CD8+ T cells with artificial antigen presenting cells (aAPCs) loaded with peptide/MHC complexes and anti-CD28 antibody.
In order to perform in vitro stimulations by artificial antigen presenting cells loaded with peptide-MHC complex (pMHC) and anti-CD28 antibody, the inventors first isolated CD8+ T cells from fresh HLA-A*02 leukapheresis products via positive selection using CD8 microbeads (Miltenyi Biotec, Bergisch-Gladbach, Germany) of healthy donors obtained from the University clinics Mannheim, Germany, after informed consent.
PBMCs and isolated CD8+ lymphocytes were incubated in T-cell medium (TCM) until use consisting of RPMI-Glutamax (Invitrogen, Karlsruhe, Germany) supplemented with 10% heat inactivated human AB serum (PAN-Biotech, Aidenbach, Germany), 100 U/ml Penicillin/100 μg/ml Streptomycin (Cambrex, Cologne, Germany), 1 mM sodium pyruvate (CC Pro, Oberdorla, Germany), 20 μg/ml Gentamycin (Cambrex). 2.5 ng/ml IL-7 (PromoCell, Heidelberg, Germany) and 10 U/ml IL-2 (Novartis Pharma, Nürnberg, Germany) were also added to the TCM at this step.
Generation of pMHC/anti-CD28 coated beads, T-cell stimulations and readout was performed in a highly defined in vitro system using four different pMHC molecules per stimulation condition and 8 different pMHC molecules per readout condition.
The purified co-stimulatory mouse IgG2a anti human CD28 Ab 9.3 (Jung et al., 1987) was chemically biotinylated using Sulfo-N-hydroxysuccinimidobiotin as recommended by the manufacturer (Perbio, Bonn, Germany). Beads used were 5.6 μm diameter streptavidin coated polystyrene particles (Bangs Laboratories, Illinois, USA).
pMHC used for positive and negative control stimulations were A*0201/MLA-001 (peptide […] (SEQ ID NO. 664) from modified Melan-A/MART-1) and A*0201/DDX5-001 ([…] from DDX5, SEQ ID NO. 665), respectively.
800.000 beads/200 μl were coated in 96-well plates in the presence of 4×12.5 ng different biotin-pMHC, washed and 600 ng biotin anti-CD28 were added subsequently in a volume of 200 μl. Stimulations were initiated in 96-well plates by co-incubating […] CD8+ T cells with 2×10^5 washed coated beads in 200 μl TCM supplemented with 5 ng/ml IL-12 (PromoCell) for 3 days at 37° C. Half of the medium was then exchanged by fresh TCM supplemented with 80 U/ml IL-2 and incubating was continued for 4 days at 37° C. This stimulation cycle was performed for a total of three times. For the pMHC multimer readout using 8 different pMHC molecules per condition, a two-dimensional combinatorial coding approach was used as previously described (Andersen et al., 2012) with minor modifications encompassing coupling to 5 different fluorochromes. Finally, multimeric analyses were performed by staining the cells with Live/dead near IR dye (Invitrogen, Karlsruhe, Germany), CD8-FITC antibody clone SK1 (BD, Heidelberg, Germany) and fluorescent pMHC multimers. For analysis, a BD LSRII SORP cytometer equipped with appropriate lasers and filters was used. Peptide specific cells were calculated as percentage of total CD8+ cells. Evaluation of multimeric analysis was done using the FlowJo software (Tree Star, Oregon, USA). In vitro priming of specific multimer+ CD8+ lymphocytes was detected by comparing to negative control stimulations. […]

“582 (TLCDVILMV; listed as Homo sapiens) [compound 582]”: the “Peptide exchange (MHC class I binding score, peptide exchange yield)” value (shortened to “Peptide exchange”) in test [1] is ““+++” (≥50 = +++)”.

For “583 (ILANDGVLLAA; listed as Homo sapiens) [compound 583]”, in test [1], the “Peptide exchange” value is ““+++” (≥50 = +++)”.

For “584 (ALAEVAAMENV; listed as Homo sapiens) [compound 584]”, the “Peptide exchange” value in test [1] is ““+++” (≥50 = +++)”.

For “585 (ALWDLAADKQTL; listed as Homo sapiens) [compound 585]”, the “Peptide exchange” value in test [1] is ““++++” (≥75% = ++++)”.

On to “586 (KLKPGDLVGV; listed as Homo sapiens) [compound 586]”, for which, in test [1], the “Peptide exchange” value is listed as ““+++” (≥50 = +++)”.

Consider “587 (VMNDRLYAI; listed as Homo sapiens) [compound 587]”, for which the “Peptide exchange” value in test [1] is ““+++” (≥50 = +++)”.

In the case of “588 (SLLPLSHLV; listed as Homo sapiens) [compound 588]”, the “Peptide exchange” value in test [1] is ““+++” (≥50 = +++)”.

In the case of “589 (KLYPQLPAEI; listed as Homo sapiens) [compound 589]”, the “Peptide exchange” value in test [1] is recorded as ““+++” (≥50 = +++)”.

On to “590 (SLIEKLWQT; listed as Homo sapiens) [compound 590]”, for which the “Peptide exchange” value in test [1] is given as ““++” (≥20% = ++)”.

Turning to “591 (SMAELDIKL; listed as Homo sapiens) [compound 591]”, the “Peptide exchange” value in test [1] is given as ““+++” (≥50 = +++)”.

For “592 (RLLSAAENFL; listed as Homo sapiens) [compound 592]”, in test [1], the “Peptide exchange” value is given as ““+++” (≥50 = +++)”.

Consider “593 (GLPRFGIEMV; listed as Homo sapiens) [compound 593]”, for which the “Peptide exchange” value in test [1] is listed as ““+++” (≥50 = +++)”.

Turning to “594 (IMLKGDNITL; listed as Homo sapiens) [compound 594]”, the “Peptide exchange” value in test [1] was ““+++” (≥50 = +++)”.

“595 (VLLSIYPRV; listed as Homo sapiens) [compound 595]”: the “Peptide exchange” value in test [1] was ““+++” (≥50 = +++)”.

For “596 (ALLDQTKTLAESAL; listed as Homo sapiens) [compound 596]”, in test [1], the “Peptide exchange” value is on record as ““+++” (≥50 = +++)”.

With “597 (KLLEGQVIQL; listed as Homo sapiens) [compound 597]”, the “Peptide exchange” value in test [1] is reported as ““+++” (≥50 = +++)”.

Regarding “598 (FLFPHSVLV; listed as Homo sapiens) [compound 598]”, the “Peptide exchange” value in test [1] was ““+++” (≥50 = +++)”.

In the case of “599 (YLLNDASLISV; listed as Homo sapiens) [compound 599]”, the “Peptide exchange” value in test [1] is on record as ““+++” (≥50 = +++)”.

“600 (ALAAPDIVPAL; listed as Homo sapiens) [compound 600]”: the “Peptide exchange” value in test [1] was ““+++” (≥50 = +++)”.

For “601 (SAFPFPVTV; listed as Homo sapiens) [compound 601]”, the “Peptide exchange” value in test [1] is reported as ““+++” (≥50 = +++)”.

Turning to “602 (YLLEQIKLIEV; listed as Homo sapiens) [compound 602]”, the “Peptide exchange” value in test [1] was ““++++” (≥75% = ++++)”.

As to “603 (FLIEPEHVNTV; listed as Homo sapiens) [compound 603]”, the “Peptide exchange” value in test [1] is given as ““++” (≥20% = ++)”.

For the substance “604 (SILDRDDIFV; listed as Homo sapiens) [compound 604]”, the “Peptide exchange” value in test [1] is reported as ““+++” (≥50 = +++)”.

As to “605 (KLYEAVPQL; listed as Homo sapiens) [compound 605]”, in test [1], the “Peptide exchange” value is recorded as ““+++” (≥50 = +++)”.

Take “606 (ALWETEVYI; listed as Homo sapiens) [compound 606]”: in test [1], the “Peptide exchange” value is ““+++” (≥50 = +++)”.

For “607 (RLYSGISGLEL; listed as Homo sapiens) [compound 607]”, the “Peptide exchange” value in test [1] is listed as ““+++” (≥50 = +++)”.

Consider “608 (SLLSVSHAL; listed as Homo sapiens) [compound 608]”, for which the “Peptide exchange” value in test [1] is ““+++” (≥50 = +++)”.

Take “609 (ALWKQLLEL; listed as Homo sapiens) [compound 609]”: the “Peptide exchange” value in test [1] was ““+++” (≥50 = +++)”.

With “610 (LLAPTPYIIGV; listed as Homo sapiens) [compound 610]”, the “Peptide exchange” value in test [1] is listed as ““+++” (≥50 = +++)”.

As to “611 (YLLDDGTLVV; listed as Homo sapiens) [compound 611]”, the “Peptide exchange” value in test [1] was ““++++” (≥75% = ++++)”.

With “612 (YLYNEGLSV; listed as Homo sapiens) [compound 612]”, in test [1], the “Peptide exchange” value is reported as ““+++” (≥50 = +++)”.

Consider “613 (RLLPPGAVVAV; listed as Homo sapiens) [compound 613]”, for which the “Peptide exchange” value in test [1] is ““+++” (≥50 = +++)”.

Consider “614 (LLLPDQPPYHL; listed as Homo sapiens) [compound 614]”, for which the “Peptide exchange” value in test [1] is ““+++” (≥50 = +++)”.

For “615 (VLPPDTDPA; listed as Homo sapiens) [compound 615]”, the “Peptide exchange” value in test [1] was ““++” (≥20% = ++)”.

Consider “616 (VLIDEVESL; listed as Homo sapiens) [compound 616]”, for which, in test [1], the “Peptide exchange” value was ““+++” (≥50 = +++)”.

As for “617 (ALMYESEKVGV; listed as Homo sapiens) [compound 617]”, in test [1], the “Peptide exchange” value is ““+++” (≥50 = +++)”.

Consider “618 (VLFDSESIGIYV; listed as Homo sapiens) [compound 618]”, for which, in test [1], the “Peptide exchange” value is given as ““+++” (≥50 = +++)”.

On to “619 (ALQDRVPLA; listed as Homo sapiens) [compound 619]”, for which the “Peptide exchange” value in test [1] is ““+++” (≥50 = +++)”.

For the substance “620 (KLLNKIYEA; listed as Homo sapiens) [compound 620]”, in test [1], the “Peptide exchange” value is ““++++” (≥75% = ++++)”.

As for “621 (VLMDRLPSLL; listed as Homo sapiens) [compound 621]”, in test [1], the “Peptide exchange” value was ““++++” (≥75% = ++++)”.

On to “622 (RLLGEEVVRVLQA; listed as Homo sapiens) [compound 622]”, for which, in test [1], the “Peptide exchange” value is ““+++” (≥50 = +++)”.

Turning to “623 (YLVEDIQHI; listed as Homo sapiens) [compound 623]”, in test [1], the “Peptide exchange” value was ““+++” (≥50 = +++)”.

As to “635 (SLDSTLHAV; listed as Homo sapiens) [compound 635]”, in test [1], the “Peptide exchange” value was ““+++” (≥50 = +++)”.

Consider “648 (LLWGNAIFL; listed as Homo sapiens) [compound 648]”, for which, in test [2], the “donors (percentage of positive donors)” value is “+++ (50%-69% = +++)” and the “wells (percentage of positive wells)” value is given as “++ (20%-49% = ++)”.

The values are drawn from patent US10464978B2, “Peptides and combination of peptides for use in immunotherapy against ovarian cancer and other cancers” (immatics biotechnologies GmbH, priority 2015, dated 2019).
